Laboratory results reported in US20110117113A1, “IMMUNOGLOBULIN SINGLE VARIABLE DOMAIN DIRECTED AGAINST HUMAN CXCR4 AND OTHER CELL ASSOCIATED PROTEINS AND METHODS TO GENERATE THEM” (priority 2009, published 2011).
Entries after “also recorded” stand apart in the source; their conditions may differ.

Legend:
[1] = target: all CXCR4 library clones containing a mutation at S178; assay: immunofluorescence, average over all clones with a mutation at S178
[2] = target: all CXCR4 library clones containing a mutation at D187; assay: immunofluorescence, average over all clones with a mutation at D187
[3] = target: all CXCR4 library clones containing a mutation at F189; assay: immunofluorescence, average over all clones with a mutation at F189
CXCR4 [4] = target: T1, CXCR4 (Homo sapiens, UniProt P61073); assay: Competition binding, displacement of [^125I]-238D2 on membranes from HEK293T cells transiently expressing CXCR4; settings: mean ± S.E.M.
T1 construct: expressed in transfected cells; host or cells: HEK293T, transient; membrane fraction
Protocol: (§1) Iodine incorporation and specific activity were controlled via precipitation of the protein with trichloroacetic acid.
(§2) Competition binding assay—Periplasmic fractions were screened in a competition binding assay using membranes from HEK293T cells transiently expressing CXCR4. […] Membranes were then harvested over polyethylenimine (0.5%)-treated Whatman GF/C filter plates and washed three times with ice cold binding buffer containing 500 mM NaCl. Plates were counted by liquid scintillation.
(§3) Characterization of Nanobody binding to CXCR4—Following purification, receptor binding to characteristics for 238D2 and 238D4 were investigated on cell membranes from HEK293T cells transiently expressing CXCR4.
(§4) Data analysis and presentation—Data are presented as mean±S.E.M. from n independent experiments. Concentration response curves (E/[A] curves) were fitted to the Hill equation using an iterative, least-squares method (GraphPad Prism 4.0, GraphPad Software, San Diego, Calif.) to provide maximal inhibitory effects (Imax), half maximal effective (EC50) or inhibitory concentrations (IC50). Competition binding affinities and functional antagonist affinities (Ki) were calculated using the Cheng and Prusoff equation Ki=IC50/(1+[agonist]/EC50) (Cheng & Prusoff, 1973).

CXCR4 [5] = target: T1, CXCR4; assay: Competition binding, displacement of [^125I]-CXCL12 on membranes from HEK293T cells transiently expressing CXCR4
Protocol: as §1, §2, §3, §4

wildtype human CXCR4 = target: T2, wildtype human CXCR4 (Homo sapiens, UniProt P61073); assay: Footprint assay, flow cytometry binding to wildtype human CXCR4 on Hek293T cells; settings: Myc-tag detection, 10 nM and 100 nM Nanobody, average n = 3, wild type used for normalization
T2 construct: expressed in transfected cells; host or cells: Hek293T, transient, pcDNA3.1
From the text: (§5) Based on the data from example 1.8, we introduced 3 single point-mutations in ECL2 of CXCR4 that allowed to discriminate between 238D2 and 238D4-like epitopes: V196E (specifically disturbing D2 binding)-SEQ ID NO: 20, D187V (specifically disturbing D4 binding)-SEQ ID NO: 21, F189V (disturbing binding of both D2 and D4)-SEQ ID NO: 19. […] For the epitope mapping, transient transfections of the three CXCR4 mutants and wildtype human CXCR4 in the pcDNA3.1 vector were done in Hek293T cells, after which Nanobody binding of different families was assessed by flow cytometry using detection of the Myc-tag, followed by secondary anti-mouse PE. Two concentrations of Nanobody were tested, 10 nM and 100 nM, and experiment was repeated with essentially the same results. Binding of the Nanobodies to HEK293T hCXCR4 cells was used for normalization using the following formulas:
(§6) Percentage of binding to the mutant receptors was calculated for each Nanobody concentration, and a position was considered as critical when less than 25% residual binding (average of n=3) was observed (Table C-5). […] Nanobodies could be grouped according to their different binding patterns, not only in “238D2-like” or “epitope A binders” and “238D4-like” or “epitope B binders” but also into other new groups.

CXCR4 mutant 1 (F189V) = target: T3, CXCR4 mutant 1 (F189V) (Homo sapiens, UniProt P61073, F189V); assay: Footprint assay, flow cytometry binding to CXCR4 F189V on Hek293T cells; settings: Myc-tag detection, 10 nM and 100 nM Nanobody, average n = 3, relative to hCXCR4
T3 construct: expressed in transfected cells; host or cells: Hek293T, transient, pcDNA3.1
From the text: as §5, §6

CXCR4 mutant 2 (V196E) = target: T4, CXCR4 mutant 2 (V196E) (Homo sapiens, UniProt P61073, V196E); assay: Footprint assay, flow cytometry binding to CXCR4 V196E on Hek293T cells; settings: Myc-tag detection, 10 nM and 100 nM Nanobody, average n = 3, relative to hCXCR4
T4 construct: expressed in transfected cells; host or cells: Hek293T, transient, pcDNA3.1
From the text: as §5, §6

CXCR4 (N119A) = target: T5, CXCR4 (N119A) (Homo sapiens, UniProt P61073, N119A); assay: Basal inositol phosphate accumulation in HEK293T cells transiently expressing CXCR4 (N119A); type: cell-based; settings: ligand-induced alteration of basal inositol phosphate accumulation
T5 construct: expressed in transfected cells; host or cells: HEK293T, transient; membranes in A4, whole cells in A5
From the text: The functional profile of monovalent Nanobodies 238D2 and 238D4 as well as their bivalent fusion products L3 and L8 on CXCR4 (N119A) were investigated by measurement of the ligand-induced alteration of the basal inositol phosphate accumulation. HEK293T cells transiently expressing CXCR4 (N119A) show a 3-8 times higher basal rate of inositol phosphate accumulation compared to wild type CXCR4 or mock (which are virtually at the same level). […] The nanobody-induced reduction of basal inositol phosphate accumulation was antagonized by the selective neutral CXCR4 antagonist plerixafor confirming that the observed […] effects are mediated via CXCR4 (N119A).

CXCR4 mutant 3 (D187V) = target: T6, CXCR4 mutant 3 (D187V) (Homo sapiens, UniProt P61073, D187V); assay: Footprint assay, flow cytometry binding to CXCR4 D187V on Hek293T cells; settings: Myc-tag detection, 10 nM and 100 nM Nanobody, average n = 3, relative to hCXCR4
T6 construct: expressed in transfected cells; host or cells: Hek293T, transient, pcDNA3.1
From the text: as §5, §6

T1 sequence (P61073 whole entry): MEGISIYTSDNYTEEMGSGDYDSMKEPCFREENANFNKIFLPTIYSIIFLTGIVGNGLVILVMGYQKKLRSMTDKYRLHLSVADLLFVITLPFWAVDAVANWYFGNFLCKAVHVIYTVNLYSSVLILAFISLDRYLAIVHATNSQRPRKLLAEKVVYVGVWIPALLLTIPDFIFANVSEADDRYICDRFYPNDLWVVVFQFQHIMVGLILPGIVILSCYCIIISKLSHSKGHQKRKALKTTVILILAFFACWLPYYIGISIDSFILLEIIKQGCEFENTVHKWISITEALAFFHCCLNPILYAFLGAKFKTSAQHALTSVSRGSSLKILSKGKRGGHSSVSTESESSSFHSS
T4 sequence (P61073 whole entry V196E): as the sequence (P61073 whole entry) above, with V196E counted along it
T2 sequence (P61073 whole entry): as the sequence (P61073 whole entry) above
T3 sequence (P61073 whole entry F189V): as the sequence (P61073 whole entry) above, with F189V counted along it
T5 sequence (P61073 whole entry N119A): as the sequence (P61073 whole entry) above, with N119A counted along it
T6 sequence (P61073 whole entry D187V): as the sequence (P61073 whole entry) above, with D187V counted along it

B1: Nanobody 238D4 (VHH)
VHH: EVQLMESGGGLVQAGGSLRLSCAASGRTFNNYAMGWFRRAPGKEREFVAAITRSGVRSGVSAIYGDSVKDRFTISRDNAKNTLYLQMNSLKPEDTAVYTCAASAIGSGALRRFEYDYSGQGTQVTVSS
average nanobody reactivity [1]: 23.2% | average nanobody reactivity [2]: -12.2% | average nanobody reactivity [3]: 0.2%

B2: 238D2: monovalent anti CXCR4 Nanobody, SEQ ID NO: 2 (protein)
VHH: EVQLVESGGGLVQTGGSLRLSCAASGFTFSSYAMSWVRQAPGKGLEWVSGIKSSGDSTRYAGSVKGRFTISRDNAKNMLYLQMYSLKPEDTAVYYCAKSRVSRTGLYTYDNRGQGTQVTVSS
modifications: Nanobody
[^125I]-238D2 Displacem. (%) (CXCR4 [4]; maximal displacement): 97 ± 6% | [^125I]-238D2 pKi (CXCR4 [4]; receptor affinity): 8.41 ± 0.11 | functional antagonist affinities (Ki) to CXCR4 (CXCR4 [5]; in words, [^125I]-CXCL12 displacement): low nanomolar range | [^125I]-CXCL12 Displacem. (%) (CXCR4 [5]; maximal displacement, membranes from HEK293T cells transiently expressing CXCR4, mean ± S.E.M.): 93 ± 5% | displacement of specifically bound [^125I]-CXCL12 (in words) (CXCR4 [5]; membranes from HEK293T cells transiently expressing CXCR4): strongly displacing; also recorded: fully displace | [^125I]-CXCL12 pKi (CXCR4 [5]; receptor affinity, membranes from HEK293T cells transiently expressing CXCR4, mean ± S.E.M.): 8.01 ± 0.12 | HEK293T CXCR4 binding (wildtype human CXCR4): + (>75% binding to mutant rel. to hCXCR4) | HEK293T F189V binding (CXCR4 mutant 1 (F189V)): − (<=25% binding to mutant rel. to hCXCR4) | Hek293T V196E binding (CXCR4 mutant 2 (V196E)): − (<=25% binding to mutant rel. to hCXCR4) | functional profile on CXCR4 (N119A) (in words) (CXCR4 (N119A)): Only antagonistic but no significant inverse agonistic activities | HEK293T D187V binding (CXCR4 mutant 3 (D187V)): + (>75% binding to mutant rel. to hCXCR4)
